Holding throughout (conditions): remark: other sources report otherwise
For assay [1], the target named is T1, Fas fusion proteins with the death domain (CFP and YFP) (Homo sapiens (Human)), P25445.
T1 chain: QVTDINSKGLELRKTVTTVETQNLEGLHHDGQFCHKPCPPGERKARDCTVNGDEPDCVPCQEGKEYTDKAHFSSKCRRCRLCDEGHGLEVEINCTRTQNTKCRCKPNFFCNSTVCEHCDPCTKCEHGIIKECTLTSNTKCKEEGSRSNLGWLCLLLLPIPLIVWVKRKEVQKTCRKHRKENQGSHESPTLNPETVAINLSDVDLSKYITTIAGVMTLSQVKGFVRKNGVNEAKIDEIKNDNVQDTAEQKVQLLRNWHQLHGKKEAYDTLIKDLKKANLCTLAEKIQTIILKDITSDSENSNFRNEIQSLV
Kind of assay: CFP dequenching after YFP photobleaching, microscope.

Assay [2] addresses T2, native Fas receptor of H9 lymphoma cells (Homo sapiens (Human)), P25445.
T2 chain: T1 chain
Kind of assay: DTSSP crosslinking of H9 cells, deglycosylated lysates, anti-Fas blot.

Assay [3] concerns the target T3, p60 TNFR, full-length (Homo sapiens (Human)), P19438.
T3 chain: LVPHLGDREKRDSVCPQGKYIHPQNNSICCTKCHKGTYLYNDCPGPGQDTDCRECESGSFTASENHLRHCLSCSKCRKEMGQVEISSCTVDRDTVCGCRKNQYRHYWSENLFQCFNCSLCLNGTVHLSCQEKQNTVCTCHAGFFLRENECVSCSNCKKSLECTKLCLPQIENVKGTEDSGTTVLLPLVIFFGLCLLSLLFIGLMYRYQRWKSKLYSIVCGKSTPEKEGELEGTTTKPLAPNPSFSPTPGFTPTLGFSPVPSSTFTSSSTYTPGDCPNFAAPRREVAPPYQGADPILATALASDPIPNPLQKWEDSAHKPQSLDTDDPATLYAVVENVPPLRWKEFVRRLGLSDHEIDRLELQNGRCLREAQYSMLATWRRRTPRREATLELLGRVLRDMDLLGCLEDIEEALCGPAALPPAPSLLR
Kind of assay: DTSSP crosslinking of H9 cells with or without TNFα, non-reducing gel, anti-p60 blot.

B1: Fas fusion proteins with the death domain (CFP and YFP), P25445 26-335 (receptor, not shown: large carriers)
chain: T1 chain
In assay [1], B1 registered an FRET efficiency (E%) of 27%.

B2: native Fas receptor of H9 lymphoma cells, P25445 26-335 (receptor)
chain: T1 chain
Consider B2, for which the percent of chains cross-linked as trimers (densitometry) in assay [2] is 60%.

B3: p60 TNFR, full-length, P19438 30-455 (receptor)
chain: T3 chain
With B3, the percent of chains cross-linked as apparent trimers and higher order complexes in assay [3] lay in the range of 15 to 20%.
